From publication doi:10.1101/2024.10.15.618347

Molecular target: YTHDC1 YTH domain (UniProt Q96MU7 345-509)
Assay: EMSA

**Q.** Does AACUUAAUGUUUUUGCAUUGGACUUUGAGUU (ssRNA, m6A at position 22 (GGACU to GG(m6A)CU)) [MALAT1 oligo, m6A] bind?
**A.** Result: binds
